According to PMC8004131 (Viruses, 2021):

Key:
[1] = biological target: soluble tetrameric Ghana virus attachment glycoprotein (GhV sG) (Ghana virus); assay: negative-stain electron microscopy
[2] = biological target: Mojiang virus attachment glycoprotein (MojV G), full length, S-tagged (Mojiang virus); assay: cross-linking
[3] = biological target: soluble tetrameric Mojiang virus attachment glycoprotein (MojV sG) (Mojiang virus); assay: negative-stain electron microscopy
[4] = biological target: Mojiang virus fusion glycoprotein (MojV F), full length, S-tagged (Mojiang virus); assay: cross-linking
[5] = biological target: soluble trimeric Mojiang virus fusion glycoprotein (MojV sF) (Mojiang virus); assay: negative-stain electron microscopy
[6] = biological target: soluble trimeric Cedar virus fusion glycoprotein (CedV sF) (Cedar virus); assay: negative-stain electron microscopy
[7] = biological target: the molecule itself; assay: cross-linking

“soluble tetrameric Ghana virus attachment glycoprotein (GhV sG) (domain or fragment)” gave a stoichiometry N [1] of 4.

Molecule “Mojiang virus attachment glycoprotein (MojV G), full length, S-tagged (natural protein)” has a stoichiometry N [2] of 4.

“soluble tetrameric Mojiang virus attachment glycoprotein (MojV sG) (domain or fragment)” showed a stoichiometry N [3] of 4.

“Mojiang virus fusion glycoprotein (MojV F), full length, S-tagged (natural protein)” showed a stoichiometry N [4] of 3.

“soluble trimeric Mojiang virus fusion glycoprotein (MojV sF) (domain or fragment)” gave a stoichiometry N [5] of 3.

Molecule “soluble trimeric Cedar virus fusion glycoprotein (CedV sF) (domain or fragment)” has a stoichiometry N [6] of 3.

B1: Cedar virus attachment glycoprotein (CedV G), full length, S-tagged (natural protein)
chain: MLSQLQKNYLDNSNQQGDKMNNPDKKLSVNFNPLELDKGQKDLNKSYYVKNKNYNVSNLLNESLHDIKFCIYCIFSLLIIITIINIITISIVITRLKVHEENNGMESPNLQSIQDSLSSLTNMINTEITPRIGILVTATSVTLSSSINYVGTKTNQLVNELKDYITKSCGFKVPELKLHECNISCADPKISKSAMYSTNAYAELAGPPKIFCKSVSKDPDFRLKQIDYVIPVQQDRSICMNNPLLDISDGFFTYIHYEGINSCKKSDSFKVLLSHGEIVDRGDYRPSLYLLSSHYHPYSMQVINCVPVTCNQSSFVFCHISNNTKTLDNSDYSSDEYYITYFNGIDRPKTKKIPINNMTADNRYIHFTFSGGGGVCLGEEFIIPVTTVINTDVFTHDYCESFNCSVQTGKSLKEICSESLRSPTNSSRYNLNGIMIISQNNMTDFKIQLNGITYNKLSFGSPGRLSKTLGQVLYYQSSMSWDTYLKAGFVEKWKPFTPNWMNNTVISRPNQGNCPRYHKCPEICYGGTYNDIAPLDLGKDMYVSVILDSDQLAENPEITVFNSTTILYKERVSKDELNTRSTTTSCFLFLDEPWCISVLETNRFNGKSIRPEIYSYKIPKYC
notes: source: BSR-T7/5, transfected, on cells; precipitated from lysate with S protein agarose; not shown: S-tag, N-terminal, kept
B1 was tested, and the “stoichiometry N” value [7] was 4.

B2: Hendra virus attachment glycoprotein (HeV G), full length, S-tagged (natural protein)
chain: MMADSKLVSLNNNLSGKIKDQGKVIKNYYGTMDIKKINDGLLDSKILGAFNTVIALLGSIIIIVMNIMIIQNYTRTTDNQALIKESLQSVQQQIKALTDKIGTEIGPKVSLIDTSSTITIPANIGLLGSKISQSTSSINENVNDKCKFTLPPLKIHECNISCPNPLPFREYRPISQGVSDLVGLPNQICLQKTTSTILKPRLISYTLPINTREGVCITDPLLAVDNGFFAYSHLEKIGSCTRGIAKQRIIGVGEVLDRGDKVPSMFMTNVWTPPNPSTIHHCSSTYHEDFYYTLCAVSHVGDPILNSTSWTESLSLIRLAVRPKSDSGDYNQKYIAITKVERGKYDKVMPYGPSGIKQGDTLYFPAVGFLPRTEFQYNDSNCPIIHCKYSKAENCRLSMGVNSKSHYILRSGLLKYNLSLGGDIILQFIEIADNRLTIGSPSKIYNSLGQPVFYQASYSWDTMIKLGDVDTVDPLRVQWRNNSVISRPGQSQCPRFNVCPEVCWEGTYNDAFLIDRLNWVSAGVYLNSNQTAENPVFAVFKDNEILYQVPLAEDDTNAQKTITDCFLLENVIWCISLVEIYDTGDSVIRPKLFAVKIPAQCSES
In the case of B2, the “stoichiometry N” value [7] is reported as 4.
